Source: patent US12497460B2, “Anti-MSR1 antibodies and methods of use thereof” (REGENERON PHARMACEUTICALS, INC., priority 2018, dated 2025)
Positions count from the first letter of the chain named. Numbers in names are those of the source.

T1: MSR1 on differentiated THP-1 cells (Homo sapiens, UniProt P21757)
T1 construct: endogenous in cells; host or cells: THP-1 cells differentiated with PMA
T1 sequence (P21757 1-451): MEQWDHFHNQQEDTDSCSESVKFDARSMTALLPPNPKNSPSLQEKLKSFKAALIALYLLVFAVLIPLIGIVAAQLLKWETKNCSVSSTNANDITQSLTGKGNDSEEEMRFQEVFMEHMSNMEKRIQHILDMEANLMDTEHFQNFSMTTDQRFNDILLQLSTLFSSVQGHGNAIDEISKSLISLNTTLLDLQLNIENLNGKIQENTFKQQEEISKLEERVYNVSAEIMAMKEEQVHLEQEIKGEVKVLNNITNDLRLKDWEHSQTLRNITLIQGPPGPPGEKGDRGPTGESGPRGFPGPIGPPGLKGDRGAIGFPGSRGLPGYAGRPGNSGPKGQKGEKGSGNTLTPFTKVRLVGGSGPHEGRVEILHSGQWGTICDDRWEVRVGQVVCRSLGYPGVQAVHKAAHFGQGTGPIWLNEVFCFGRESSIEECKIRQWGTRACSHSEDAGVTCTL

B1: H1H27731P-N297Q: one of "Twelve anti-MSR1 antibodies"; "made with an N297Q single point mutation in human Fcγ portion" (antibody, V domains shown)
VH: QLQLQESGPGLVKPSETLSLTCTVSGGSISRISYYWGWIRQPPGKGLEWIGSIYDSGSTYYNPSLKSRVTISIDTSKNQFSLKLSSVTAADTAVYYCVRYSSSSAFAFDYWGQGTLVTVSS
VL: DIQMTQSPSSVSASVGDRVTITCRASQGISSWLAWYQQKPGKAPKLLIYAASSLQSGVPSRFSGSGSGTDFTLTISSLQPEDFATYYCQQANSFPFTFGPGTKVDIKR
B2: H1H27754P-N297Q: one of "Twelve anti-MSR1 antibodies"; "made with an N297Q single point mutation in human Fcγ portion" (antibody, V domains shown)
VH: EVQLVESGGGLVQPGGSLRLSCAASGFTFRTYAMTWVRQAPGKGLDWVSAITGDGGNTYYADSVKGRFTISRDNSKNTLYLQMNSLRAEDTAIYYCAKDQRFSFALYYFDYWGQGTLVTVSS
VL: B1 VL with K42N, S52F, S93N, F96W, P100Q, D105E
B3: H1H27747P-N297Q (antibody, V domains shown)
VH: QVQLVESGGAVVQPGRSLRLSCAASGFTFSYYGMHWVRQAPGKGLEWVAVISYDGSKKYYADSVKGRFTISRDNSKNTLYLQMNSLRAEDTAVYYCAKDLTVDFYYGMDVWGQGTTVTVSS
VL: B1 VL with A51T, V58A, Y87F, F96Y, P100Q, V104L, D105E
B4: H1H27734P-N297Q: one of "Twelve anti-MSR1 antibodies"; "made with an N297Q single point mutation in human Fcγ portion" (antibody, V domains shown)
VH: EVQLVESRGGLVQPGGSLRLSCAASGFTFSSYAMSWVRQAPGKGLEWVSAISGSGGSTFYADSVKGRFTISRDNSKNTVYLQMNSLRAEDTAVYYCAKALVLRFLEWLGDYWGQGTLVTVSS
VL: DIQMTQSPSTLSASVGDRVTITCRASQSISSWLAWFQQKPGKAPKLLIYKASSLESGVPSRFSGSGSGTEFTLTISSLQPDDFATYYCQQYKSYWTFGQGTKVEIKR

molecular target: T1, MSR1 on differentiated THP-1 cells; experiment: Binding and internalization of cell-surface expressed MSR1 in differentiated THP-1 cells; assay type: cell-based; conditions: 10 μg/mL antibody
Protocol: Exemplary anti-MSR1 antibodies were assessed for their ability to bind and internalize MSR1 on MSR1-expressing cells.
The THP-1 cells were allowed to differentiate for 4 days at 37° C. in 5% CO2. […] The remaining two plates were incubated at 37° C. for 1 hour followed by fixation and staining for 20 minutes using a solution of 4% PFA+5 μM DRAQ5 diluted in PBS (internalization plates). After fixation, all plates were washed once with PBS. […] The remaining plates were incubated with PBS only. Confocal images were acquired on the Opera Phenix (Perkin Elmer) at 40× magnification. […] The total binding at 4° C. (RFU values of 4° C. unquenched wells), total binding at 37° C. (RFU values of 37° C. unquenched wells), the total internalized RFU, and % Internalization were determined for each antibody as shown in Table 14.
For all calculations, background fluorescence from unstained wells was subtracted from every well. Total internalized RFU was calculated as follows: Total RFU of 37° C. unquenched samples−Surface RFU at 37° C. Surface RFU is defined as unquenched RFU at 37° C.−quenched RFU at 37° C.)/QE. QE (quenching efficiency) is defined as: 1−(Total RFU of 4° C. quenched sample/Total RFU of 4° C. unquenched sample). The % Internalization was determined from the following formula: (Total internalized RFU at 37° C./Total RFU at 37° C.)*100.

Row | % Internalization | Molecule
1 | 54.2% | B1
2 | 90.0% | B2
3 | 58.2% | B3

same assay, conditions: 10 μg/mL antibody, 4° C.

Row | Total Binding at 4° C. | Molecule
4 | 1215319 | B1
5 | 3077308 | B2
6 | 2518361 | B3
7 | 482859 | B4

same assay, conditions: 10 μg/mL antibody, 37° C.

Row | Total Binding at 37° C. | Total Internalized RFU | Molecule
8 | 1802404 | 977543 RFU | B1
9 | 7161570 | 6446236 RFU | B2
10 | 5917858 | 3444330 RFU | B3
11 | 1151348 | 737425 RFU | B4

molecular target: HMM-mfMSR1 (monkey MSR1 extracellular domain); experiment: Biacore surface plasmon resonance binding kinetics of anti-MSR1 mAbs, antibody-capture format; conditions: 25° C.; analyte HMM-mfMSR1; * = no dissociation observed, kd manually fixed at 1.00E−05; NB = no binding observed
Sequence (as listed by the source): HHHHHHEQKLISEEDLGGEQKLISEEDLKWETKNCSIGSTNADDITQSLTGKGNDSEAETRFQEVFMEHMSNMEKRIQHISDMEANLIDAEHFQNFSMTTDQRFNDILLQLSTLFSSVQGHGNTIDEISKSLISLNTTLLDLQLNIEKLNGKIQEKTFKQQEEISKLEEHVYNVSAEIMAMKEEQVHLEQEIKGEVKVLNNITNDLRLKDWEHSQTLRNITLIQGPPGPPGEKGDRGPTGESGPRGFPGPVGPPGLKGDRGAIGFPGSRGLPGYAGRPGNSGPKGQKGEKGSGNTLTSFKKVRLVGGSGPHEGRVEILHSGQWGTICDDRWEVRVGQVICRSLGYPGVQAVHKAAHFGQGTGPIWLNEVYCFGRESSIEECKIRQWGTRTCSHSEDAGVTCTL
Method in brief: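 Captured anti-MSR1 antibodies were run against MSR1 reagents by SPR in HBS-ET (pH 7.4) at 25 °C and 37 °C. ka and kd came from fitting sensorgrams to a 1:1 model with mass-transport limitation. KD and t½ were calculated from these rates.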

Row | kd | Molecule
12 | 4.69e-05 s⁻¹ | B1
13 | 1.76e-05 s⁻¹ | B2
14 | 0.000874 s⁻¹ | B3
15 | 0.00291 s⁻¹ | B4

same assay, conditions: 25° C.; analyte HMM-mfMSR1; antibody-capture format; NB = no binding observed

Row | ka | Molecule
16 | 98200 M⁻¹ s⁻¹ | B1
17 | 235000 M⁻¹ s⁻¹ | B2
18 | 231000 M⁻¹ s⁻¹ | B3
19 | 423000 M⁻¹ s⁻¹ | B4

same assay, conditions: 37° C.; analyte HMM-mfMSR1; * = no dissociation observed, kd manually fixed at 1.00E−05; NB = no binding observed

Row | kd | Molecule
20 | 0.000187 s⁻¹ | B1
21 | 3.53e-05 s⁻¹ | B2
22 | 0.00228 s⁻¹ | B3
23 | 0.0032 s⁻¹ | B4

same assay, conditions: 37° C.; analyte HMM-mfMSR1; antibody-capture format; NB = no binding observed

Row | ka | Molecule
24 | 278000 M⁻¹ s⁻¹ | B1
25 | 701000 M⁻¹ s⁻¹ | B2
26 | 657000 M⁻¹ s⁻¹ | B3
27 | 949000 M⁻¹ s⁻¹ | B4

test system: B16F10.9 cells (MSR1 negative); experiment: Flow cytometry binding, MSR1 negative cells; assay type: cell-based, mouse; conditions: 10 μg/mL antibody
Protocol: Relative cell surface binding of the anti-MSR1 antibodies to mouse MSR1 expressing cells was determined by flow cytometry using MSR1 positive RAW264.7 cells (ATCC, Catalog #TIB-71) and MSR1 negative B16F10.9 cells (Lin et al. 1998. PNAS 95:8829-8834). For the assay, cells were plated in PBS without calcium and magnesium (VWR Cat #45000-446) and 2% FBS (Saradigm Cat #1500-500) (Staining Buffer) in 96 well V-bottom plates (Axygen Scientific, Cat #P-96-450-V-C-S). To block binding to Fc receptors, RAW264.7 cells were incubated for 30 minutes at 4° C. with 500 μg/mL mouse IgG (Jackson ImmunoResearch, Cat #015-000-003) diluted in staining buffer, while B16F10.9 cells remained in staining buffer. Following Fc receptor blocking, 10 μg/mL of anti-MSR1 antibodies or an isotype control antibody were added to the cells and were subsequently incubated for 30 minutes on ice. For a positive control, a commercial anti-mouse MSR1 (Sino Biological, Cat #50129-R004) antibody was used, while a rabbit IgG antibody (Thermo Scientific, Cat #26102) was used as a negative control. […] Cells were subsequently washed and fixed using a 50% solution of Cytofix (BD Biosciences, Cat #554655) diluted in PBS. […] The signal to noise (S/N) was determined by calculating the ratio of the anti-MSR1 antibodies or the control antibodies MFI to the unstained sample MFI (Table 11).

Row | Molecule | B16F10.9 MFI
28 | B1 | 3688
29 | B2 | 4091
30 | B3 | 3875
31 | B4 | 4505
